We go through one variant from IntAct's records for PubMed 23164639.

First the molecules themselves.
B1: Peroxiredoxin-6 (Mus musculus), O08709 (parent)
chain: MPGGLLLGDEAPNFEANTTIGRIRFHDFLGDSWGILFSHPRDFTPVCTTELGRAAKLAPEFAKRNVKLIALSIDSVEDHLAWSKDINAYNGETPTEKLPFPIIDDKGRDLAILLGMLDPVEKDDNNMPVTARVVFIFGPDKKLKLSILYPATTGRNFDEILRVVDSLQLTGTKPVATPVDWKKGESVMVVPTLSEEEAKQCFPKGVFTKELPSGKKYLRYTPQP

In the experiment the parent is B1. Particulars: with gstp1_mouse Gstp1, P19157.
gstp1_mouse Gstp1, P19157, sequence (P19157 whole entry): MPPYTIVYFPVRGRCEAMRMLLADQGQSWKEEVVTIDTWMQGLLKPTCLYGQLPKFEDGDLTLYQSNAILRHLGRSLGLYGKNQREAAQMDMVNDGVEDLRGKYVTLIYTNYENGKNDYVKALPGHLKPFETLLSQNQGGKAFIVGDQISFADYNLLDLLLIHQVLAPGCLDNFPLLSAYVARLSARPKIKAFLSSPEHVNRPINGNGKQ
For the variant MPGGLLLGDEAPNFEANTTIGRIRFHDFLGDSWGILFSHPRDFTPVSTTELGRAAKLAPEFAKRNVKLIALSIDSVEDHLAWSKDINAYNGETPTEKLPFPIIDDKGRDLAILLGMLDPVEKDDNNMPVTARVVFIFGPDKKLKLSILYPATTGRNFDEILRVVDSLQLTGTKPVATPVDWKKGESVMVVPTLSEEEAKQCFPKGVFTKELPSGKKYLRYTPQP [C47S], the “effect of a mutation on the interaction” value is on record as “disrupting interaction”.
